The values that follow come from US20040214230A1.

The target in experiment [1] is monoclonal antibody GR-1Ca. Kind of experiment: competitive EIA: GALP varied against HRP-labeled [Cys^43] rat GALP (43-60); GR-1Ca solution of 80 ng/ml on anti-mouse immunoglobulin plate.
Experiment [2] has as its target monoclonal antibody GR-2Ca. Description: competitive EIA: GALP varied against HRP-labeled [Cys^43] rat GALP (43-60); GR-2Ca solution of 80 ng/ml on anti-mouse immunoglobulin plate.

What is called IC50 is the midpoint of a concentration-inhibition curve. A low value points to inhibition by little substance.

B1: human GALP (peptide)
peptide: APAHRGRGGWTLNSAGYLLGPVLHLPQMGDQDGKRETALEILDLWKAIDGLPYSHPPQPS
As for B1, the IC50 in experiment [1] is 7 nM; in experiment [2], 20 nM.

B2: rat GALP (peptide)
peptide: APAHRGRGGWTLNSAGYLLGPVLHLSSKANQGRKTDSALEILDLWKAIDGLPYSRSPRMT
With B2, the IC50 in experiment [1] worked out at 3 nM; in experiment [2], 10 nM.

B3: porcine GALP (peptide)
peptide: APVHRGRGGWTLNSAGYLLGPVLHPPSRAEGGGKGKTALGILDLWKAIDGLPYPQSQLAS
B3: the 50% inhibitory concentration (IC50) in experiment [1] amounted to 8 nM; in experiment [2], 500 nM.
